Test results reported in patent US20210388081A1 (Memorial Sloan Kettering, published 2021).

T1: FcRL2, overexpressed on 3T3 cells (UniProt Q96LA5 20-508, limits assumed)
T1 construct: whole, on cells
T1 sequence (looked up): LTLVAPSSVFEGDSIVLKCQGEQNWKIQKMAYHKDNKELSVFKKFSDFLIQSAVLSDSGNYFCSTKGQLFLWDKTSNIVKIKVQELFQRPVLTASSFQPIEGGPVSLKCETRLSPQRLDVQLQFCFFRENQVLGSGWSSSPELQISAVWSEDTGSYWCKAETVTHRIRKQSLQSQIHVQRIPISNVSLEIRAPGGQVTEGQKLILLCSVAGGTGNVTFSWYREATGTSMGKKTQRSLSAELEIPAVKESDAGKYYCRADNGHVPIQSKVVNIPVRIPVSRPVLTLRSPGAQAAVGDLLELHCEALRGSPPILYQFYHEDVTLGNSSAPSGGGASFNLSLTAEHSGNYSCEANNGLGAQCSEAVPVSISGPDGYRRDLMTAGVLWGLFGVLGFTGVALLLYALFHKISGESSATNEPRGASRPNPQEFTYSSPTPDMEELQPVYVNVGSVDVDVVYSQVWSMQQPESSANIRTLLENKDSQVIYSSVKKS

T2: Fc Receptor-like 5 (FcRL5), full length, overexpressed on 3T3 or Raji cells (human, UniProt Q96RD9 16-977)
T2 construct: also called 3T3-FcRL5
T2 sequence: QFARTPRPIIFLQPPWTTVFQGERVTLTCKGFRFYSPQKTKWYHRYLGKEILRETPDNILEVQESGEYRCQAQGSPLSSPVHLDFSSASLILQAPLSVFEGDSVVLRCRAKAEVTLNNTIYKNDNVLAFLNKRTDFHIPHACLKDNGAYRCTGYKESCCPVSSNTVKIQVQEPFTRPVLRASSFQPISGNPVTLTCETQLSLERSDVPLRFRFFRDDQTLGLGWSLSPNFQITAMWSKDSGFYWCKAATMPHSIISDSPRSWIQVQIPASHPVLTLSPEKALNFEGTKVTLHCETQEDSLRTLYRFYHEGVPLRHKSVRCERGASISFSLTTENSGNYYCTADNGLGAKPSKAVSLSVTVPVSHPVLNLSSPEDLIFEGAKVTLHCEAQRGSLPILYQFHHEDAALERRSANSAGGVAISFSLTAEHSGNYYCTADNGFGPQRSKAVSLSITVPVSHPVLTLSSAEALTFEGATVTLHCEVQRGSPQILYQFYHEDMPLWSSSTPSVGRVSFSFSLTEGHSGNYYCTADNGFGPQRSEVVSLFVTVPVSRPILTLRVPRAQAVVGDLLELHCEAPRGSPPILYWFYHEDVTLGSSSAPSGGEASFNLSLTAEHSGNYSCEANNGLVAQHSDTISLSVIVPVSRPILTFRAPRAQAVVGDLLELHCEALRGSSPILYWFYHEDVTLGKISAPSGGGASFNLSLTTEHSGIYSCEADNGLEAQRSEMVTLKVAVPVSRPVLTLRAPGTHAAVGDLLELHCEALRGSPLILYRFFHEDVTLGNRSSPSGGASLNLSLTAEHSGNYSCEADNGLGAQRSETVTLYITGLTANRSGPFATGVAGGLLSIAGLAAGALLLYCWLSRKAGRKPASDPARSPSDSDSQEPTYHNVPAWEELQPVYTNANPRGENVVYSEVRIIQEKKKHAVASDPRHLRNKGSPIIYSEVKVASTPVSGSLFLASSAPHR


What was measured:
[1] = target: SLAMF9 protein (UniProt Q96A28 19-236, limits assumed); experiment: phage clone on SLAMF9 protein
[2] = target: T1, FcRL2, overexpressed on 3T3 cells; experiment: phage clone on 3T3-FcRL2 cells
[3] = target: T2, Fc Receptor-like 5 (FcRL5), full …; experiment: phage clone screening on cells
Experimental: Once selected, positive scFv clones are further tested for their binding to FcRL5 (e.g., human FcRL5) on live 3T3 cell surfaces by flow cytometry. Briefly, phage clones are incubated with 3T3 cells over-expressing FcRL5. The cells are washed and then incubated with a mouse anti-M13 coat protein mAb. Cells are washed again and labeled with a PE-horse anti-mouse Ig prior to flow cytometry.
Phage′ display against FcRL5 was performed to enrich for scFv phage clones that bind to FcRL5 specifically. Screening was carried out on FcRL5 overexpressing 3T3 cells or 3T3 cells expressing FcRL1, 2, 3, 4 or 6 as a negative control (FIG. 2).

SLAMF9 protein, sequence (Q96A28 19-236 limits assumed): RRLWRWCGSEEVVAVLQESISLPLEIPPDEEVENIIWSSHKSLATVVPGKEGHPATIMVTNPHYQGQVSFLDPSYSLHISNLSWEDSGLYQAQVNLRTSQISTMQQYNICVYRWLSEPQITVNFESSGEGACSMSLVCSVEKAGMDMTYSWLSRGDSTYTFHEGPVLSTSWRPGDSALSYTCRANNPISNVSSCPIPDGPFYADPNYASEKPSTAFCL

Binder | binding result [1] | binding result [2] | binding result [3]
ET200-040 (scFv, screened as phage clone; entry is VL-linker-VH-His tag-HA tag) scFv: QSVLTQPPSVSGAPGQRVTISCTGSSSNIGAGYDVHWYQQLPGTAPKLLIYGNSNRPSGVPDRFSGSKSGTSASLAITGLQAEDEADYYCQSYDSSLSGYVFGTGTKVTVLGSRGGGGSGGGGSGGGGSLEMAQVQLVQSGAEVKKPGASVKVSCKVSGYTLTELSMHWVRQAPGKGLEWMGGFDPEDGETIYAQKFQGRVTMTEDTSTDTAYMELSSLRSEDTAVYYCARYSGVYYDWGQGTLVTVSSTSGQAGQHHHHHHGAYPYDVPDYAS | no binding | no binding | binds
ET200-098 (scFv, screened as phage clone; entry is VL-linker-VH-His tag-HA tag) scFv: QPVLTQPPSVSKGLRQTATLTCTGNSNNVGNLGVAWLQQHQGHPPKLLSYRNNNRPSGISERLSASRSGNTASLTITGLQPEDEADYYCSAWDSSLSAWVFGGGTKLTVLGSRGGGGSGGGGSGGGGSLEMAEVQLVESGGVVVQPGGSLRLSCAASGFTFDDYAMHWVRQAPGKGLEWVSLINWDGGSTYYADSVKGRFTISRDNSKNSLYLQMNSLRAEDTALYYCAKGMGLRAFDYWGQGTLVTVSSTSGQAGQHHHHHHGAYPYDVPDYAS | no binding | no binding | binds
ET200-042 (scFv, screened as phage clone; entry is VL-linker-VH-His tag-HA tag) scFv: QSVVTQPPSVSGAPGQTVTISCTGGSSNIGTGYFVNWYQQVPGKAPKLLILGNNNRPSGVPDRLSGSTSGTSASLAITGLQAEDEGTYYCQSYDSSLSGYVFGTGTKVTVLGSRGGGGSGGGGSGGGGSLEMAQVQLQQSGPGLVKPSQTLSLTCGISGDSVSTNSVAWHWIRQSPSRGLEWLGRTYYRSKWSNDYGVSVKSRITIIPDTSKNQFSLQLNSVTPEDTAVYYCARSSSWYQIFDYWGQGTLVTVSSTSGQAGQHHHHHHGAYPYDVPDYAS | no binding | no binding | binds
ET200-038 (scFv, screened as phage clone; entry is VL-linker-VH-His tag-HA tag) scFv: QSVLTQPPSVSGAPGQRVTISCTGSSSNIGAGFDVHWYQLLPGTAPKLLIYANSNRPSGVPDRFSGSKSGTSASLAITGLLAEDEADYYCQSYDSSLSGVVFGGGTKLTVLGSRGGGGSGGGGSGGGGSLEMAQVQLVQSGAEVKKPGSSVKVSCKASGGTFSSYAISWVRQAPGQGLEWMGGIIPIFGTANYAQKFQGRVTITADESTSTAYMELSSLRSEDTAVYYCARGASFDRHDNWGQGTLVTVSSTSGQAGQHHHHHHGAYPYDVPDYAS | no binding | no binding | binds
ET200-097 (scFv, screened as phage clone; entry is VL-linker-VH-His tag-HA tag) scFv: LPVLTQPPSVSVSPGQTAIITCSGDKLGEKYVSWYQQKPGQSPVLVIDQDTRRPSGIPERFSGSNSGTTATLTISGTQAMDEADYYCQAWDRGVVFGGGTKLTVLGSRGGGGSGGGGSGGGGSLEMAEVQLVESGGDLVQPGRSLRLSCAASGFTFNDYAMHWVRQAPGKGLEWVSGISWSGNNIGYADSVKGRFTISRDNAKNSLYLQMNSLRAEDTALYYCAKDSIRYGITWGGFDYWGQGTLVTVSSTSGQAGQHHHHHHGAYPYDVPDYAS | no binding | no binding | binds
ET200-081 (scFv, screened as phage clone; entry is VL-linker-VH-His tag-HA tag) scFv: QSALTQPASVSGSPGQSITISCTGTSSDIGGYNYVSWYQQHPGKAPKLMIYDVSNRPSGVSNRFSGSKSGNTASLTISGLQAEDEADYYCISYTRTWNPYVFGSGTKVTVLGSRGGGGSGGGGSGGGGSLEMAEVQLVQSGGGVVQPGGSLRLSCAASGFTFDDYAMHWVRQAPGKGLEWVSLISGDGGSTYYADSVKGRFTISRDNSKNSLYLQMNSLRTEDTALYYCAKDRAAAGYYYYGMDVWGQGTTVTVSSTSGQAGQHHHHHHGAYPYDVPDYAS | no binding | no binding | binds
ET200-079 (scFv, screened as phage clone; entry is VL-linker-VH-His tag-HA tag) scFv: SYELTQPPSASGTPGQRVTISCSGSSSNIGSNYVYWYQQLPGTAPKLFIYRNNQRPSGVPDRFSGSKSGTSASLAISGLRSEDEADYYCAAWDDSLSGYLFGTGTKVTVLGSRGGGGSGGGGSGGGGSLEMAEVQLVESGGGLVQPGRSLRLSCAASGFTFDDYAMHWVRQAPGKGLEWVSGISWNSGSIGYADSVKGRFTISRDNAKNSLYLQMNSLRAEDTALYYCANGDSNYYYGMDVWGQGTTVTVSSTSGQAGQHHHHHHGAYPYDVPDYAS | no binding | no binding | binds
ET200-041 (scFv, screened as phage clone; entry is VL-linker-VH-His tag-HA tag) scFv: NFMLTQPHSVSGSPGKTVTISCTGSSGSIADNFVQWYQQRPGGVPTTVIFNDDERPSGVPDRFSGSIDTSSNSASLTISGLKTEDEADYYCQSYDNNNRGVFGGGTKLTVLGSRGGGGSGGGGSGGGGSLEMAQVQLVQSGAEVKKPGSSVKVSCKASGGTFSSYAISWVRQAPGQGLEWMGWMNPNSGNTGYAQKFQGRVTMTRNTSISTAYMELSNLRSEDTAVYYCARYYSYGYDWGQGTLVTVSSTSGQAGQHHHHHHGAYPYDVPDYAS | no binding | no binding | binds
ET200-045 (scFv, screened as phage clone; entry is VL-linker-VH-His tag-HA tag) scFv: QPVLTQPPSVSVAPGKTATITCGGNNIGSESVHWYHQKPGQAPVLVIYDDAGRPSGIPERFTGSNSGNTATLTISRVEAGDEADYYCQVWDRNSAQFVFGPGTKVTVLGSRGGGGSGGGGSGGGGSLEMAEVQLVQSGAEVKKPGASVKVSCKASGYTFTSYGISWVRQAPGQGLEWMGWISAYNGNTNYAQKLQGRVTMTTDTSTSTAYMELRSLRSDDTAVYYCARGVHLDWWGQGTLVTVSSTSGQAGQHHHHHHGAYPYDVPDYAS | no binding | no binding | binds
ET200-003 (scFv, screened as phage clone; entry is VL-linker-VH-His tag-HA tag) scFv: QSVLTQPPSVSVSPGQTASISCSGNKLGTKYVYWYQKRPGQSPVLVMYEDNQRPSGIPERFSGSNSGNTATLTIRGTQTVDEADYYCQAWDSDTFVVFGGGTKVTVLGSRGGGGSGGGGSGGGGSLEMAEVQLVETGGGVVQPGRSLRLSCAASGFTFSSYGMHWVRQAPGKGLEWVAVISHDGSNKYYADSVKGRFTISRDNSKDTLYLQMNSLRGEDTAVYYCARSNQWSGYFSFDYWGQGTLVTVSSTSGQAGQHHHHHHGAYPYDVPDYAS | no binding | no binding | binds
ET200-069 (scFv, screened as phage clone; entry is VL-linker-VH-His tag-HA tag; also called ET200-69) scFv: QSVVTQPPSASGTPGQRVTISCSGSSSNIGSNYVYWYQQLPGTAPKLLIYSNNQRPSGVPDRFSGSKSGTSASLAISGLRSEDEADYYCAAWDDSLSGYVFGTGTKLTVLGSRGGGGSGGGGSGGGGSLEMAQVQLQQWGAGLLKPSETLSLTCAVYGGSFSGYYWSWIRQPPGKGLEWIGEINHSGSTNYNPSLKSRVTISVDTSKNQFSLKLSSVTAADTAVYYCARLYEGGYHGWGSWLSSDSWGQGTLVTVSSTSGQAGQHHHHHHGAYPYDVPDYAS | no binding | no binding | binds
ET200-044 (scFv, screened as phage clone; entry is VL-linker-VH-His tag-HA tag) scFv: QSVLTQPPSVSVSPGQTATIACSGHKLGDKYASWYQQKSGQSPVLIIYQDNKRPSGIPERFSGSNSGNTATLTISGTQALDEADYYCQAWDSSTYVAFGGGTKLTVLGSRGGGGSGGGGSGGGGSLEMAQVQLQESGPGLVKPSETLSLTCVVSGGSISSSNWWSWVRQPPGKGLEWIGEIYHSGSPNYNPSLKSRVTISVDKSKNQFSLKLSSVTAADTAVYYCARMTTHTFGYDAWGQGTLVTVSSTSGQAGQHHHHHHGAYPYDVPDYAS | no binding | no binding | binds
